In assay [1] the target is T1, La protein (Lupus autoantigen), native, in lysates of fusing human osteoclasts (human, UniProt P05455 1-408, limits assumed).
T1 construct: Endogenous La from monocyte-derived human osteoclasts 3 days post-RANKL; also called native La; SSB
T1 sequence: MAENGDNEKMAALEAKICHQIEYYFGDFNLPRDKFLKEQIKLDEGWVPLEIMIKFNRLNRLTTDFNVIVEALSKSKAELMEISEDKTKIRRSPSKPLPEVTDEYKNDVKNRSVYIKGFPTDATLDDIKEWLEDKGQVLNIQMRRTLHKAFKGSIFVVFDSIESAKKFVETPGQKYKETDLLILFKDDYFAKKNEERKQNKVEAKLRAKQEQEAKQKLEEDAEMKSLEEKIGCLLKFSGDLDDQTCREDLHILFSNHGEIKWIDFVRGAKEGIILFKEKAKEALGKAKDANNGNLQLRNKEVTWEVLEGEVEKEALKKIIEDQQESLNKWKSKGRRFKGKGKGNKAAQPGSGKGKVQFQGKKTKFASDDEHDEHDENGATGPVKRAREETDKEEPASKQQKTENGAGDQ
In words: co-immunoprecipitation with α-La on magnetic beads from DTSSP-crosslinked osteoclast lysates, immunoblot. Background: In western blotting, separated proteins are transferred to a membrane and probed.

The test system of assay [2] is human monocyte-derived osteoclasts. The assay can be described thus: Osteoclast fusion assay (number of fusion events, fluorescence microscopy). The class given is cell-based. The note with it: for osteoclast fusion (fusion events in syncytia with 3+ nuclei): overexpression from expression plasmid vs empty plasmid, human osteoclasts; for formation of multinucleated syncytia (osteoclast fusion): recombinant protein ~40 nM added end of day 2 post-RANKL, overnight. How it is done: Osteoclasts: Elutriated monocytes from healthy donors were obtained. Cells were plated at 2.9×10^5 per cm^2 in 35 mm dishes with polymer coverslip bottoms (Ibidi #81156) for imaging or 35 mm or 10 cm dishes for biochemical experiments in complete media [α-MEM supplemented with 10% Fetal Bovine Serum (FBS) and penicillin-streptomycin-L-glutamine (Gibco Invitrogene #12571063; #26140079 and #10378016, respectively)]. Monocytes were differentiated to M2 macrophages in the presence of 100 ng/ml M-CSF for 6 days and then differentiated with 100 ng/ml M-CSF and 100 ng/ml RANKL for 3 days unless indicated otherwise. RAW 264.7 cells (ATCC, Manassas, VA, #TIB-71) were maintained in DMEM supplemented with 10% FBS to a maximum of 8 passages. RAW 264.7 cells were differentiated to osteoclasts in the presence of 100 ng/ml murine RANKL for 5 days. To separate unfused mononucleated and fused, multinucleated RAW 264.7 cells into separate fractions, advantage was taken of the much stronger adherence of multinucleated cells to culture dish plastic. After washing in PBS, mixed RAW cultures (following RANKL differentiation) were left in Ca^2+ and Mg^2+ free PBS for 10 minutes at room temperature. Culture dishes were then tapped on the lab bench and a large portion of unfused, mononucleated RAW cells were released, and these released cells were collected via centrifugation. This process was repeated 2-4 times until dishes were left with a population of primarily fused, multinucleated syncytia. Mononucleated and multinucleated cell fractions were then processed for biochemical or imaging experiments as described below.
Constructs & Recombinant proteins & Transfection: Recombinant La 1-408, 1-375, 1-375 Q20A_Y24A_D33I, 1-187 and 188-375 were amplified with primers designed with overlapping sequences and inserted between NdeI/HindIII in the V78 pET28A E. coli expression vector, adding to each a N-terminal 6×his affinity tag. La 1-408 was expressed as a recombinant protein in E. coli and purified using IMAC columns by SD Biosciences (San Diego, CA). The remaining constructs were transformed into BL2 (DE3) chemically competent E. coli (Thermo Fisher Scientific) and protein expression was induced with IPTG. Cells were lysed with Bugbuster (Sigma), and 6×his-La proteins were affinity purified using HisPur Cobalt Spin columns (Thermo Fisher Scientific), each according to the manufacturer's instructions. Endotoxin contaminates were depleted from affinity purified 6×his-La proteins using Pierce high-capacity endotoxin removal columns (Thermo Fisher Scientific), according to the manufacturer's instructions. Proteins were then sterile filtered, aliquoted and kept at −80 C.
Plasmids were introduced into primary osteoclasts at day 2 of RANKL stimulation via jetPRIME (Polyplus Transfection). FLAG-La 1-408, FLAG-La 1-375 and FLAG-La 1-375 Q20A_Y24A_D33I plasmids were a gift of the Maraia Lab (NICHD). Briefly, SSB (UniProt P05455) was inserted between HindIII and BamHI the pFLAG-CMV2 vector (Sigma). “Uncleavable” La was produced by taking the FLAG-La 1-408 plasmid and making two point mutations at amino acids D371A and D374A, abrogating the caspase cleavage sites at the C-terminal region of the protein (Emory Integrated Genomics Core). siRNA were introduced into primary osteoclasts after 1 day of RANKL stimulation via Lipofectamine RNAiMAX (Thermo Fisher Scientific). Non-targeted (Cat #4390843) and SSB-targeted (Cat #4392420_ID:s13469) siRNA were introduced at a concentration of 5 ng/ml (Silencer Select, Ambion).
Fusion Assays: Osteoclast fusion in the culture systems was evaluated by fluorescence microscopy (Verma et al., J Biol Chem 293, 254-270, doi:10.1074/jbc.M117.809681 (2018)). Briefly, cells were fixed with 4% paraformaldehyde at timepoints of interest, permeabilized with 0.1% TRITON™ X-100 and blocked with 5% FBS. Cells were then stained with phallodin-ALEXAFLURO®488 and Hoechst to label cells' actin cytoskeleton and nuclei, respectively. […]

In assay [3] the test system is RAW 264.7 derived, murine osteoclasts. In words: Osteoclast fusion assay in RAW 264.7 derived osteoclasts. The class given is cell-based. To be noted: overexpression from expression plasmid vs empty plasmid. How it is done:
Osteoclasts: Elutriated monocytes from healthy donors were obtained. Cells were plated at 2.9×10^5 per cm^2 in 35 mm dishes with polymer coverslip bottoms (Ibidi #81156) for imaging or 35 mm or 10 cm dishes for biochemical experiments in complete media [α-MEM supplemented with 10% Fetal Bovine Serum (FBS) and penicillin-streptomycin-L-glutamine (Gibco Invitrogene #12571063; #26140079 and #10378016, respectively)]. Monocytes were differentiated to M2 macrophages in the presence of 100 ng/ml M-CSF for 6 days and then differentiated with 100 ng/ml M-CSF and 100 ng/ml RANKL for 3 days unless indicated otherwise. RAW 264.7 cells (ATCC, Manassas, VA, #TIB-71) were maintained in DMEM supplemented with 10% FBS to a maximum of 8 passages. […]
Fusion Assays: Osteoclast fusion in the culture systems was evaluated by fluorescence microscopy (Verma et al., J Biol Chem 293, 254-270, doi:10.1074/jbc.M117.809681 (2018)). […] Osteoclast fusion efficiency was evaluated as the number of fusion events between cells in these images, as described previously. Since regardless of the sequence of fusion events, the number of cell-to-cell fusion events required to generate syncytium with N nuclei is always equal to N−1, the fusion number index was calculated as Σ(Ni−1)=Ntotal−Nsyn, where Ni=the number of nuclei in individual syncytia and Nsyn=the total number of syncytia. […]

In assay [4] the test system is human, monocyte-derived osteoclasts. The assay can be described thus: Bone resorption assay (fluoresceinamine-labeled chondroitin sulfate on calcium phosphate-coated plates). To be noted: for bone resorption: overexpression, normalized to empty plasmid. It counts as cell-based. How it is done: There is a relationship between osteoclast fusion and bone resorption (Makris and Saffar, Arch Oral Biol 27, 965-969, doi:10.1016/0003-9969(82)90104-2 (1982); Piper et al., Anat Embryol (Berl) 186, 291-299, doi:10.1007/BF00185977 (1992); Moller et al., Int J Mol Sci 21, doi:10.3390/ijms21176368 (2020)). It was hypothesized that by regulating osteoclast size, La also regulates bone resorption. This hypothesis was evaluated by differentiating osteoclasts on fluoresceinated calcium phosphate, a biomimetic of bone, and assessed osteoclast-dependent bone resorption by the release of fluorescein into the media (FIG. 5A). […] Overexpression of La 1-375 promoted bone resorption, while the uncleavable La mutant, D371,374A, had no effect (FIG. 5B).
Bone Resorption: Bone resorption was evaluated using bone resorption assay kits from Cosmo Bio USA according to the manufacturer's instructions. Briefly, fluoresceinamine-labeled chondroitin sulfate was used to label 24-well, calcium phosphate-coated plates. Human, monocyte-derived osteoclasts were differentiated as described above, using alpha MEM without phenol red. Media were collected at 4-5 days post RANKL addition, and fluorescence intensity within the media was evaluated as recommended by the manufacture.

Experimental findings from patent US20240041978A1, “LA PROTEIN AS A NOVEL REGULATOR OF OSTEOCLASTOGENESIS” (The U.S.A., as Represented by the Secretary, Department of …, priority 2021, published 2024) are described below.

Substitutions are numbered along the chain they refer to. Numbers in names are those of the source.

B1: Annexin A1 (Anx A1), native, in fusing human osteoclasts (other, UniProt P04083 2-346, looked up)
chain: AMVSEFLKQAWFIENEEQEYVQTVKSSKGGPGSAVSPYPTFNPSSDVAALHKAIMVKGVDEATIIDILTKRNNAQRQQIKAAYLQETGKPLDETLKKALTGHLEEVVLALLKTPAQFDADELRAAMKGLGTDEDTLIEILASRTNKEIRDINRVYREELKRDLAKDITSDTSGDFRNALLSLAKGDRSEDFGVNEDLADSDARALYEAGERRKGTDVNVFNTILTTRSYPQLRRVFQKYTKYSKHDMNKVLDLELKGDIEKCLTAIVKCATSKPAFFAEKLHQAMKGVGTRHKALIRIMVSRSEIDMNDIKAFYQKMYGISLCQAILDETKGDYEKILVALCGGN
As for B1, the binding result in assay [1] is “no binding”.

B2: La 1-375: amino acids 1-375 of human La lacking NLS; recombinant protein or overexpressed from FLAG plasmid (protein, listed as Homo sapiens)
chain: MAENGDNEKMAALEAKICHQIEYYFGDFNLPRDKFLKEQIKLDEGWVPLEIMIKFNRLNRLTTDFNVIVEALSKSKAELMEISEDKTKIRRSPSKPLPEVTDEYKNDVKNRSVYIKGFPTDATLDDIKEWLEDKGQVLNIQMRRTLHKAFKGSIFVVFDSIESAKKFVETPGQKYKETDLLILFKDDYFAKKNEERKQNKVEAKLRAKQEQEAKQKLEEDAEMKSLEEKIGCLLKFSGDLDDQTCREDLHILFSNHGEIKWIDFVRGAKEGIILFKEKAKEALGKAKDANNGNLQLRNKEVTWEVLEGEVEKEALKKIIEDQQESLNKWKSKGRRFKGKGKGNKAAQPGSGKGKVQFQGKKTKFASDDEHDEHDE
In the case of B2, in assay [2], the “osteoclast fusion (fusion events in syncytia with 3+ nuclei)” value was “greatly promoted” and the “formation of multinucleated syncytia (osteoclast fusion)” value is reported as “significantly promoted”. For the same molecule, the “osteoclast fusion (fusion events in syncytia with 3+ nuclei)” value in assay [3] was “greatly promoted”. For the same molecule, in assay [4] (40 nM recombinant protein, extracellular addition, vs PBS), the osteoclast bone resorption entry is on record as “dramatically increased”. Further, the bone resorption entry in assay [4] is on record as “promoted”.

B3: La 1-375 RNAΔ: La 1-375 with three point mutations impairing La domain RNA binding (protein, UniProt P05455 1-375, looked up, variant Q20A Y24A D33I)
chain: B2 chain with Q20A, Y24A, D33I
As for B3, the “formation of multinucleated syncytia (osteoclast fusion)” value in assay [2] is listed as “significantly promoted”. The “osteoclast fusion (fusion events in syncytia with 3+ nuclei)” value in assay [3] is “promoted formation of multinucleated osteoclasts as robustly as wild type La 1-375”.

B4: Annexin A4 (Anx A4), native, in fusing human osteoclasts (other, UniProt P09525 2-319, looked up)
chain: ATKGGTVKAASGFNAMEDAQTLRKAMKGLGTDEDAIISVLAYRNTAQRQEIRTAYKSTIGRDLIDDLKSELSGNFEQVIVGMMTPTVLYDVQELRRAMKGAGTDEGCLIEILASRTPEEIRRISQTYQQQYGRSLEDDIRSDTSFMFQRVLVSLSAGGRDEGNYLDDALVRQDAQDLYEAGEKKWGTDEVKFLTVLCSRNRNHLLHVFDEYKRISQKDIEQSIKSETSGSFEDALLAIVKCMRNKSAYFAEKLYKSMKGLGTDDNTLIRVMVSRAEIDMLDIRAHFKRLYGKSLYSFIKGDTSGDYRKVLLVLCGGDD
Consider B4, for which, in assay [1], the binding result was “no binding”.

B5: D371A,D374A La: uncleavable mutant of FL La, caspase cleavage sites disrupted, overexpressed from plasmid (protein, UniProt P05455 1-408, looked up, variant D371A D374A)
chain: T1 sequence with D371A, D374A
modifications: full-length
notes: uncleavable mutant of FL La, caspase cleavage sites disrupted, overexpressed from plasmid
On to B5, for which the “osteoclast fusion (fusion events in syncytia with 3+ nuclei)” value in assay [2] is “no effect”. For the same molecule, the bone resorption entry in assay [4] is “no effect”.
